In general, Kd refers to the free concentration of one partner at which half of the binding sites on the other are occupied at equilibrium, for simple one-to-one binding.

This note sets out measurements from publication PMC8448731 (Nature Communications, 2021).

Changes are numbered by the printed parent chain.

To fix the notation:
B1: GST-tagged SR6v15 (VHH)
VHH: EVQLVESGGGLVQAGDSLRLSCAASGDSYILWRMGWFRQAPGKEREFVAAISLDGQFTNYADSVRGRFSISADSAKYTVYLQMNSLKPEDTAVYYCAALPFLDYWGQGTQVTVSS
notes: not shown: GST, C-terminal, kept
B2: SR2_c3 (VHH)
VHH: EVQLVESGGGLVQAGDSLRLSCAASGAFSSNVFMGWFRQAPGKEREFVASITPHHAVTDYADSVRGRFSISADSAKNTVYLQMNSLKPEDTAVYYCAAAIYRNATVLDYWGQGTQVTVSS
B3: SR2_c4 (VHH)
VHH: B2 VHH with R102C
B4: SR2_t5 (VHH)
VHH: B2 VHH with E1Q, S74T
B5: SR4_c1 (VHH)
VHH: EVQLVESGGGLVQAGDSLRLSCAASGFQLSCYCMGWFRQAPGKEREFVASITQHAFRTYYADSVKGRFTISRDDARNTVYLQMNSLKPEDTAVYYCAAAETPNILVHENYWGQGTQVTVSS
B6: SR4_t4 (VHH)
VHH: B5 VHH with E6V, G9R, M34V
B7: SR4_f3 (VHH)
VHH: B5 VHH with E6V, G9R, M34V, H107Y
B8: SR4_t9 (VHH)
VHH: B5 VHH with E1K, E6V, G9R, G10V, S25T, M34V, R45L, N109S
B9: SR4_t6 (VHH)
VHH: B5 VHH with E6V, G9R, G10V, M34V, N109S
B10: SR1_t2 (VHH)
VHH: EVRLVESGGGLVLAGDSLRLSCAASGKTGRSVIMGWFRQAPDKEREFVATITRGDDTTNYADSVKGRFTISRDDARNTVYLQMNSLKPEDTAVYYCAAVYFVNDCIVDYWGQGTQVTVSS
B11: SR4_t13 (VHH)
VHH: KVQLVVTGRVLVQAGDSLRLSCVATGFQLSCYCVGWFRQAPGKELEFVASITQHAFRTYYADSVKGRFTISRDDAQNTVYLQMNSLEPEDTAVYYCAAAETPNILVHESYWGQGTQVTVSS
B12: SR6_f3 (VHH)
VHH: B1 VHH with E1Q, E6V, S28C, Y29H, I30V, Q56L, K76E, Y77N, L99M, L102F
B13: SR6_t6 (VHH)
VHH: B1 VHH with E1Q, E6V, S28C, Y29H, I30V, K76E, Y77N
B14: SR6_t9 (VHH)
VHH: B1 VHH with E1Q, E6V, A23T, S28C, Y29H, I30V, R45L, T58A, K76E, Y77N
B15: SR6_t5 (VHH)
VHH: B1 VHH with E1Q, E6V, S28C, Y29H, I30V, Y77N
B16: SR12_f3 (VHH)
VHH: QVQLVVSGGGLVQAGDSLRLSCAASGAIVHVFAMGWFRQAPGKEREFVASINLDNDATNYADSVKGRFTISRDDARNTVYLQMNSLKPEDTAVYYCNATIFMDSDLGDYWGRGTQVTVSS
B17: SR12_t6 (VHH)
VHH: B16 VHH with A57V, M102T, D105G

The target of the first assay is recombinant RBD (ThermoFisher, RP-87678) (SARS-CoV-2, Wuhan-Hu-1 assumed, UniProt P0DTC2). The assay is described as follows: BLI. The conditions noted are these: one partner purified.
On to B1, for which the Kd was determined as 2.18 nM.

The target of another assay is SARS-CoV-2 spike RBD with C-terminal 3xFlag tag and N-terminal signal peptide of the spike (RBD-3xFlag) (SARS-CoV-2, Wuhan-Hu-1 type (wild type), UniProt P0DTC2).
Assay: not given
Conditions: not given
For the molecule B2, the binding result is given as “binds”. The same measure, in the same setting: in the case of B3 it was “binds”; in that of B4, “binds”. On to B5, for which the binding result is on record as “binds”. With B6, the binding result is recorded as “binds”. Take B7: the binding result was “binds”. Take B8: the binding result was “binds”. For the molecule B9, the binding result is “binds”.

On to B10, for which the binding result is recorded as “binds”. In the case of B11, the binding result was “binds”.

As to B12, the binding result is listed as “binds”. Take B13: the binding result is given as “binds”. Consider B14, for which the binding result is given as “binds”.

In the case of B15, the binding result is on record as “binds”. Turning to B16, the binding result is listed as “binds”. B17: the binding result is “binds”.
